Experiment [1] has as its target HLA-A*6901 (A69) single antigen on Luminex beads (human). Put plainly: Luminex single antigen bead assay, regular beads (#7), IVIg 1:4.
The target in experiment [2] is HLA-A*7401 (A74) single antigen on Luminex beads (human). Described as above.
Experiment [3] has as its target HLA-B*3801 (B38) single antigen on Luminex beads (human). As to the kind of experiment: Luminex single antigen, regular beads (#7), IVIg 1:8.
The target in experiment [4] is HLA-B*4002 (B61) single antigen on Luminex beads (human). The description is as above.
For experiment [5], the target named is HLA-B*4006 (B61) single antigen on Luminex beads (human). The experiment is described as above.
In experiment [6] the target is HLA-B*4101 (B41) single antigen on Luminex beads (human). The description is as above.
Experiment [7] concerns the target HLA-B*4402 (B44) single antigen on Luminex beads (human). Described as above.
The target of experiment [8] is HLA-B*4501 (B45) single antigen on Luminex beads (human). Described as above.

In the case of “IVIg Sandoglobulin (Novartis, Basel, Switzerland) (antibody)”, the results for the MFI in experiment [1] and in experiment [2] were 470 MFI and 0 MFI, respectively.
As to “Octagam (IVIg, Octapharma, Lachen, Switzerland) (antibody)”, the MFI in experiment [3] amounted to 1000 MFI; in experiment [4], 271 MFI; in experiment [5], 4970 MFI; in experiment [6] it was 393 MFI; in experiment [7], 4000 MFI; in experiment [8] it was 956 MFI.

The values above are taken from US10800847.
